The record followed here is patent US20150267232A1, “IN VIVO AND IN VITRO CARBENE INSERTION AND NITRENE TRANSFER REACTIONS CATALYZED BY HEME ENZYMES” (California Institute of Technology, priority 2012, published 2015).

Assay [1] in a line: Intramolecular carbene C—H insertion, substrate 4.1a. It is filed as biochemical. How it is done: (§1) Yield of product 4.22b was established after calibration with phenethyl alcohol as an internal standard. The reaction is not catalyzed by the WT-BM3 heme domain or hemin at 5% catalyst loading.
A representative procedure for P450-catalyzed C—H insertion is as follows: A vial containing WT-AxD (20 μL, 200 μM) was sealed with a teflon cap and the headspace of this vial was purged with argon for 5 min. Concurrently, a solution of sodium dithionite (11 mM in phosphate buffer pH=8) was degassed for a minimum of 5 min and 360 μL of this solution was transferred to the vial containing protein. The gas lines were disconnected from the vials. The substrate 4.1a or 4.1b was then added as a solution (20 μL, 200 mM). Final concentrations of all components were: 10 uM enzyme, 10 mM substrate, and 10 mM dithionite. […]
(§2) The mixture was extracted with 1 mL cyclohexane and analyzed by GC-MS or GC. GC-MS was performed on a Shimadzu TQ8030 GC-MS with ion count detector and J&W HP-5 column (30 m×0.32 mm, 0.25 μm film) using the following method: 90° C. (hold 2 min), 90-190° C. (20° C./min), and 190-230 (40° C./min)

A short description of assay [2]: Intramolecular carbene C—H insertion, substrate 4.1b. It is filed as biochemical. Particulars: 10 mM 4.1b, 10 uM P450, 10 mM Na2S2O4; product 4.2b. How it is done:
as §1
A representative procedure for P450-catalyzed C—H insertion is as follows: A vial containing WT-AxD (20 μL, 200 μM) was sealed with a teflon cap and the headspace of this vial was purged with argon for 5 min. Concurrently, a solution of sodium dithionite (11 mM in phosphate buffer pH=8) was degassed for a minimum of 5 min and 360 μL of this solution was transferred to the vial containing protein. The gas lines were disconnected from the vials. The substrate 4.1a or 4.1b was then added as a solution (20 μL, 200 mM). Final concentrations of all components were: 10 uM enzyme, 10 mM substrate, and 10 mM dithionite. The reaction vials were then placed in a tray on a plate shaker and left to shake at 40 rpm for 12 h then 20 μL phenethyl alcohol (20 mM) was added as an internal standard.
as §2

B1: WT-AxD: WT heme domain + C400D (protein)
chain: TIKEMPQPKTFGELKNLPLLNTDKPVQALMKIADELGEIFKFEAPGRVTRYLSSQRLIKEACDESRFDKNLSQALKFVRDFAGDGLFTSWTHEKNWKKAHNILLPSFSQQAMKGYHAMMVDIAVQLVQKWERLNADEHIEVPEDMTRLTLDTIGLCGFNYRFNSFYRDQPHPFITSMVRALDEAMNKLQRANPDDPAYDENKRQFQEDIKVMNDLVDKIIADRKASGEQSDDLLTHMLNGKDPETGEPLDDENIRYQIITFLIAGHETTSGLLSFALYFLVKNPHVLQKAAEEAARVLVDPVPSYKQVKQLKYVGMVLNEALRLWPTAPAFSLYAKEDTVLGGEYPLEKGDELMVLIPQLHRDKTIWGDDVEEFRPERFENPSAIPQHAFKPFGNGQRADIGQQFALHEATLVLGMMLKHFDFEDHTNYELDIKETLSLKPKGFVVKAKSKKIPLGGIPSPST
modifications: synthetic cytochrome P450-BM3 variant WT-AxD (heme)
notes: WT heme domain + C400D
As for B1, the Yield % in assay [1] (10 mM 4.1a, 10 uM P450, 10 mM Na2S2O4, product 4.2a) came out at 14%; in assay [2], 4%. The “lactone formation via C—H bond insertion” value in assay [1] (substrates 4.1a and 4.1b, 10 μM variant or hemin at 5% catalyst loading, 16 h) is recorded as “lactone formation”.
